According to publication doi:10.1101/2021.02.02.429416:
pEC50, pKd: −log10 of the molar value.

Experiments:
[1] = target: Aflibercept; test: ELISA
[2] = target: Aflibercept; test: BLI

Row | pEC50 [1] | pKd [2] | Substance
1 | 8.79 | – | Human VEGF-A121 (ligand)
2 | 8.77 | 11.57 | Human VEGF-A165 (ligand)
